From PMC6247401, “Macrophage LRP1 Promotes Diet-Induced Hepatic Inflammation and Metabolic Dysfunction by Modulating Wnt Signaling” (Mediators of Inflammation, 2018)

Target: T1, low-density lipoprotein receptor-related protein 1 (LRP1) (UniProt Q07954 20-4544)
T1 construct: low-density lipoprotein receptor-related protein 1 (LRP1), full length, purified from placenta; also called full-length LRP1; purified LRP1
Assay: SPR; Biacore 3000; full-length LRP1 amine-coupled to a CM5 chip; sFRP-5 (1.6-100 nmol/l) flowed over at 20 ul/min, 25°C, in HBS-P (0.01 M HEPES pH 7.4, 0.15 M NaCl, 0.005% P20) with 1 mM CaCl2; Req from a pseudo-first order fit with a nonspecific component, plotted against concentration and fitted to a single class of sites
Conditions: both partners purified

T1 sequence (Q07954 20-4544): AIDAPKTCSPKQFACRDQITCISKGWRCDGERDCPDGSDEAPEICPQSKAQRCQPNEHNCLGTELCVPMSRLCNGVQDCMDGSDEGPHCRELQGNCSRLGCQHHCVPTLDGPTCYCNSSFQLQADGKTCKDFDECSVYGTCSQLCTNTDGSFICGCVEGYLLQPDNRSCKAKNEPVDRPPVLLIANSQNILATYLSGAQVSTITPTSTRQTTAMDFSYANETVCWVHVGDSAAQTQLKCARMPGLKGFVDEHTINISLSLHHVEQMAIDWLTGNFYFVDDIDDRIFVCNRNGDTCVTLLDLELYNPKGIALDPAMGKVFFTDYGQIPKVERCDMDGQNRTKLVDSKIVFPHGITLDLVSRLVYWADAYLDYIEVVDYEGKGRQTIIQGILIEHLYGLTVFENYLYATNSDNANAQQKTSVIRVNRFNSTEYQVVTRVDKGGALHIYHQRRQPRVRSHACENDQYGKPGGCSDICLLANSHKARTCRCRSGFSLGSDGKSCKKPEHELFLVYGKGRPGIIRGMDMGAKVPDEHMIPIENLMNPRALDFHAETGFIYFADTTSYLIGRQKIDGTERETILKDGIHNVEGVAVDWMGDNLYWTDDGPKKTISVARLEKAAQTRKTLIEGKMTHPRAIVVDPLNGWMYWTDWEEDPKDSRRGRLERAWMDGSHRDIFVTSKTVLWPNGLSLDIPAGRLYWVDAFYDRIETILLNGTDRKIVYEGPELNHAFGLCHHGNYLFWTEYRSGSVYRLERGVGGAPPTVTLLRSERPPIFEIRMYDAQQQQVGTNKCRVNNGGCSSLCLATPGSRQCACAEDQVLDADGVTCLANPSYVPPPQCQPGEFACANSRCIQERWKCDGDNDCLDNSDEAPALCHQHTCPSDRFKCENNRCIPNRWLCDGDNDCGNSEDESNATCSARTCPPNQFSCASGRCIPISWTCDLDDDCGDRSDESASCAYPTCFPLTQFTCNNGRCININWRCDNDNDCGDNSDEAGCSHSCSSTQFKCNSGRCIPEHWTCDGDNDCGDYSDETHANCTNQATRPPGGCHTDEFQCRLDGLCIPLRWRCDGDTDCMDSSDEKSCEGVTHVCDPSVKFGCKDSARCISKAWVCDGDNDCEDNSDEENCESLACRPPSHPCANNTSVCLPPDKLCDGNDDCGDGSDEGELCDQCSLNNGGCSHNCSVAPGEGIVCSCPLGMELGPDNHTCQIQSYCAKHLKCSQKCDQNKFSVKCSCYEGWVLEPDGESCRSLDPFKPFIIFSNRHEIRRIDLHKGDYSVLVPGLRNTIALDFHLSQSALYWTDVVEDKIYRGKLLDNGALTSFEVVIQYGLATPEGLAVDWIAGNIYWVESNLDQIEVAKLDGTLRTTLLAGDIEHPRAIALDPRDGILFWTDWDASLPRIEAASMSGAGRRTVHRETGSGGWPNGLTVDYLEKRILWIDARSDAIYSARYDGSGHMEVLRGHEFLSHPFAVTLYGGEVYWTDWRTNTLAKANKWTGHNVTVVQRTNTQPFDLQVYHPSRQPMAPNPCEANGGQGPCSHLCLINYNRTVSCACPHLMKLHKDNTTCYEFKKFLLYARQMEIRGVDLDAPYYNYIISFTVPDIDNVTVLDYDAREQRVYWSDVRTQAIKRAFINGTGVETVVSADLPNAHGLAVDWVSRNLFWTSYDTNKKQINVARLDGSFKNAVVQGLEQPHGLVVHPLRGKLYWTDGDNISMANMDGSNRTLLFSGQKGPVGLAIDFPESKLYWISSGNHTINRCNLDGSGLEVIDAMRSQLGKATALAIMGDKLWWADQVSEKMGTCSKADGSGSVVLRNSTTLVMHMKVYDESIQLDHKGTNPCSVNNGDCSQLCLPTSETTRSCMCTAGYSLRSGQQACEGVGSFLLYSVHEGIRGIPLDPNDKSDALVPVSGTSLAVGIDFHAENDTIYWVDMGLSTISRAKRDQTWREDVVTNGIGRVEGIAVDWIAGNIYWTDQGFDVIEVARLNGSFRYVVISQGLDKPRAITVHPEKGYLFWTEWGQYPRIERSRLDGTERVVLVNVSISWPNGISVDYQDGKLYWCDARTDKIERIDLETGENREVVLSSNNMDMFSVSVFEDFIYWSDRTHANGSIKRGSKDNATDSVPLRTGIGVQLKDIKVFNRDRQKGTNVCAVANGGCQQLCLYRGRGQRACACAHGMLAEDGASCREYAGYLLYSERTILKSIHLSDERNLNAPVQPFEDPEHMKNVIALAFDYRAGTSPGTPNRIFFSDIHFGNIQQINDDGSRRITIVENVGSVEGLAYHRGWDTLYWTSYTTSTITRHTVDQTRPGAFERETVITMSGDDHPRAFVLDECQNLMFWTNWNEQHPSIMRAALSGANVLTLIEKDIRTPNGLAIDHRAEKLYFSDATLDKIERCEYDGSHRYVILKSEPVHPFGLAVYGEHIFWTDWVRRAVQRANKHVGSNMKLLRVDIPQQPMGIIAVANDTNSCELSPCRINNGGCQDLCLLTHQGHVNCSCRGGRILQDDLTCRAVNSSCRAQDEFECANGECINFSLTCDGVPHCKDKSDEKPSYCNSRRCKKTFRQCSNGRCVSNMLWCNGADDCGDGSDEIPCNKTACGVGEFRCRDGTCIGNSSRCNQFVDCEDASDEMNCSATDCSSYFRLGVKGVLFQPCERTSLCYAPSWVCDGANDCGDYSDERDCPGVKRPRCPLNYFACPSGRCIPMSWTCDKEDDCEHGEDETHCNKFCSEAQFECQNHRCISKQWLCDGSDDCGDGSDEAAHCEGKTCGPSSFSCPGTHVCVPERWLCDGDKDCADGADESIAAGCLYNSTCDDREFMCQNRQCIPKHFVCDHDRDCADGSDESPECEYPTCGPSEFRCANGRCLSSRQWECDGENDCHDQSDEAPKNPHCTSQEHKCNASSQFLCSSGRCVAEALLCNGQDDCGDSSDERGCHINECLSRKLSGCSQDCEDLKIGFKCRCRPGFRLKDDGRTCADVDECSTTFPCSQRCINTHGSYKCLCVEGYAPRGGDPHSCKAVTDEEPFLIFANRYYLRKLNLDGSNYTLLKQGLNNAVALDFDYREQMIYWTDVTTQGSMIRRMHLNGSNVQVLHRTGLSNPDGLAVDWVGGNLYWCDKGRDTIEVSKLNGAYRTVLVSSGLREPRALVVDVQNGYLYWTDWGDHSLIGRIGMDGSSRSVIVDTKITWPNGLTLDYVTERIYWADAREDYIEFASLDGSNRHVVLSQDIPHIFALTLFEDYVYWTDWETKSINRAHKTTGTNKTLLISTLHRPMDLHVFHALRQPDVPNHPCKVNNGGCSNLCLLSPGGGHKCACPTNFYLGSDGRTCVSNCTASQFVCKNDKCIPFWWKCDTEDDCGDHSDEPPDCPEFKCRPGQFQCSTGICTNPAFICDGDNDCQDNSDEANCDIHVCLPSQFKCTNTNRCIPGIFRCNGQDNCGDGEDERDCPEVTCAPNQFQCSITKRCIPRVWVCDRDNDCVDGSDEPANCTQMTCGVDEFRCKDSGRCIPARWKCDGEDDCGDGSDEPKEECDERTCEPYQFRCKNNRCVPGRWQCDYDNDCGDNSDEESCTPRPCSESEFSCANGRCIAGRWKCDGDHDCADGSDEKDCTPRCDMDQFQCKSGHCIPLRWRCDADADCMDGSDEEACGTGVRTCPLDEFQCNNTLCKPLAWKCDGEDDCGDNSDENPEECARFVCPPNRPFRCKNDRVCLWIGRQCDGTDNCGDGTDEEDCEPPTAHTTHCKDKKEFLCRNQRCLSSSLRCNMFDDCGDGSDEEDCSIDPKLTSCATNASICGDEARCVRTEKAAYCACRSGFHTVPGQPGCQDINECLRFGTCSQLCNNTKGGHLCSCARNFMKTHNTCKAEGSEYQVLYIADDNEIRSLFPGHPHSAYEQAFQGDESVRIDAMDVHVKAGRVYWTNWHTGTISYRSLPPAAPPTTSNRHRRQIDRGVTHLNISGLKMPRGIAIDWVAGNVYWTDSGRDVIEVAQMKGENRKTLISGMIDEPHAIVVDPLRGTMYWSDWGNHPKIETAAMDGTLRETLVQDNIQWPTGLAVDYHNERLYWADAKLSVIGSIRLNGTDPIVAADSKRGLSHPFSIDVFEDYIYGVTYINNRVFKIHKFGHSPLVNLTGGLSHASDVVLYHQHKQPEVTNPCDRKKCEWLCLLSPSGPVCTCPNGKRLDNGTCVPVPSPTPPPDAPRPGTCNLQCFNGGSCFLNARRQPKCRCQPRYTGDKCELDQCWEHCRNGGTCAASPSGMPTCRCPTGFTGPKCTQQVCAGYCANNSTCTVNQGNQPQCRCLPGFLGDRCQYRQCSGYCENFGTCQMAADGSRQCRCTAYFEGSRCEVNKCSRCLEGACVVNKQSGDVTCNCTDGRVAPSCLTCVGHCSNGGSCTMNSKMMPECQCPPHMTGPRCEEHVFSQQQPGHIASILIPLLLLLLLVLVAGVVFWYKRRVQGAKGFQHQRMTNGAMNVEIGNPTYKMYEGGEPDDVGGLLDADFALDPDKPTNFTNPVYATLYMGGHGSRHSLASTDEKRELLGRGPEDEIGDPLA

B1: secreted frizzled-related protein 5 (sFRP-5) (ligand, UniProt Q5T4F7 30-317, looked up)
chain: EEYDYYGWQAEPLHGRSYSKPPQCLDIPADLPLCHTVGYKRMRLPNLLEHESLAEVKQQASSWLPLLAKRCHSDTQVFLCSLFAPVCLDRPIYPCRSLCEAVRAGCAPLMEAYGFPWPEMLHCHKFPLDNDLCIAVQFGHLPATAPPVTKICAQCEMEHSADGLMEQMCSSDFVVKMRIKEIKIENGDRKLIGAQKKKKLLKPGPLKRKDTKRLVLHMKNGAGCPCPQLDSLAGSFLVMGRKVDGQLLLMAVYRWDKKNKEMKFAVKFMFSYPCSLYYPFFYGAAEPH
notes: secreted frizzled-related protein 5 (sFRP-5), commercial recombinant protein; source: bought: R&D Systems 6266-SF-050
Question: Which Kd does the source give for B1 here?
Answer: 32 nM
